Assay results taken from patent US20220363757A1.

Legend:
Assay in all cases: SPR, Fab over captured mutant LAG-3-Fc
[1] = biological target: human LAG-3 domain 1-2 Fc fusion, point mutation #8 Q51A (human) (UniProt P18627)
[2] = biological target: human LAG-3 domain 1-2 Fc fusion, point mutation #40 G93A (human) (UniProt P18627)
[3] = biological target: human LAG-3 domain 1-2 Fc fusion, point mutation #55 S111A (human) (UniProt P18627)
[4] = biological target: human LAG-3 domain 1-2 Fc fusion, point mutation #53 L109A (human) (UniProt P18627)
[5] = biological target: human LAG-3 domain 1-2 Fc fusion, point mutation #76 D143A (human) (UniProt P18627)
[6] = biological target: human LAG-3 domain 1-2 Fc fusion, point mutation #6 T47A (human) (UniProt P18627)
[7] = biological target: human LAG-3 domain 1-2 Fc fusion, point mutation #19 D68A (human) (UniProt P18627)
[8] = biological target: human LAG-3 domain 1-2 Fc fusion, point mutation #22 A75S (human) (UniProt P18627)
[9] = biological target: human LAG-3 domain 1-2 Fc fusion, point mutation #31 P84A (human) (UniProt P18627)
[10] = biological target: human LAG-3 domain 1-2 Fc fusion, point mutation #30 G83A (human) (UniProt P18627)
[11] = biological target: human LAG-3 domain 1-2 Fc fusion, point mutation #45 R98A (human) (UniProt P18627)
[12] = biological target: human LAG-3 domain 1-2 Fc fusion, point mutation #80 R163A (human) (UniProt P18627)
[13] = biological target: human LAG-3 domain 1-2 Fc fusion, chimeric construct #6 (mutated region AA 48-55) (human) (UniProt P18627)
[14] = biological target: human LAG-3 domain 1-2 Fc fusion, chimeric construct #19 (mutated region AA 118-127) (human) (UniProt P18627)
[15] = biological target: human LAG-3 domain 1-2 Fc fusion, point mutation #14 T62A (human) (UniProt P18627)
[16] = biological target: human LAG-3 domain 1-2 Fc fusion, chimeric construct #9 (mutated region AA 66-71) (human) (UniProt P18627)
[17] = biological target: human LAG-3 domain 1-2 Fc fusion, chimeric construct #24 (mutated region AA 148-154) (human) (UniProt P18627)
[18] = biological target: human LAG-3 domain 1-2 Fc fusion, point mutation #29 P82A (human) (UniProt P18627)
[19] = biological target: human LAG-3 domain 1-2 Fc fusion, point mutation #9 D52A (human) (UniProt P18627)
[20] = biological target: human LAG-3 domain 1-2 Fc fusion, chimeric construct #25 (mutated region AA 154-158) (human) (UniProt P18627)
[21] = biological target: human LAG-3 domain 1-2 Fc fusion, point mutation #7 P49A (human) (UniProt P18627)
[22] = biological target: human LAG-3 domain 1-2 Fc fusion, point mutation #2 Q41A (human) (UniProt P18627)
[23] = biological target: human LAG-3 domain 1-2 Fc fusion, point mutation #17 Q66A (human) (UniProt P18627)
[24] = biological target: human LAG-3 domain 1-2 Fc fusion, point mutation #41 P94A (human) (UniProt P18627)
[25] = biological target: human LAG-3 domain 1-2 Fc fusion, point mutation #66 G126A (human) (UniProt P18627)
[26] = biological target: human LAG-3 domain 1-2 Fc fusion, point mutation #23 P76A (human) (UniProt P18627)
[27] = biological target: human LAG-3 domain 1-2 Fc fusion, point mutation #26 P79A (human) (UniProt P18627)
[28] = biological target: human LAG-3 domain 1-2 Fc fusion, chimeric construct #3 (mutated region AA 40-41) (human) (UniProt P18627)
[29] = biological target: human LAG-3 domain 1-2 Fc fusion, chimeric construct #20 (mutated region AA 123-131) (human) (UniProt P18627)
[30] = biological target: human LAG-3 domain 1-2 Fc fusion, point mutation #15 Q64A (human) (UniProt P18627)
[31] = biological target: human LAG-3 domain 1-2 Fc fusion, point mutation #50 P106A (human) (UniProt P18627)
[32] = biological target: human LAG-3 domain 1-2 Fc fusion, point mutation #52 G108A (human) (UniProt P18627)
[33] = biological target: human LAG-3 domain 1-2 Fc fusion, point mutation #57 R113A (human) (UniProt P18627)
Chain of human LAG-3 domain 1-2 Fc fusion, point mutation #57 R113A (human) (P18627 23-266 R113A): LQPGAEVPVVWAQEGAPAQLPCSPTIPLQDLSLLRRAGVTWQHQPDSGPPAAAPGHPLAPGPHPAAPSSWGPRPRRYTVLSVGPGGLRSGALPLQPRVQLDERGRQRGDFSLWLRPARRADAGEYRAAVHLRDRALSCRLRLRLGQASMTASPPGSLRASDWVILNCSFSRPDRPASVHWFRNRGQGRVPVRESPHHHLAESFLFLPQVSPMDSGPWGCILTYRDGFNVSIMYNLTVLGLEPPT

Chain of human LAG-3 domain 1-2 Fc fusion, point mutation #9 D52A (human) (P18627 23-266 D52A): as the sequence (P18627 23-266 R113A) above, with D30A, A91R counted along it
Chain of human LAG-3 domain 1-2 Fc fusion, point mutation #53 L109A (human) (P18627 23-266 L109A): as the sequence (P18627 23-266 R113A) above, with L87A, A91R counted along it
Chain of human LAG-3 domain 1-2 Fc fusion, point mutation #7 P49A (human) (P18627 23-266 P49A): as the sequence (P18627 23-266 R113A) above, with P27A, A91R counted along it
Chain of human LAG-3 domain 1-2 Fc fusion, point mutation #41 P94A (human) (P18627 23-266 P94A): as the sequence (P18627 23-266 R113A) above, with P72A, A91R counted along it
Chain of human LAG-3 domain 1-2 Fc fusion, chimeric construct #6 (mutated region AA 48-55) (human) (P18627 other isoform, or with tags, fused parts or gaps mutant): as the sequence (P18627 23-266 R113A) above, with I26F, L28H, Q29L, L31P, S32N, L33F, A91R counted along it
Chain of human LAG-3 domain 1-2 Fc fusion, point mutation #19 D68A (human) (P18627 23-266 D68A): as the sequence (P18627 23-266 R113A) above, with D46A, A91R counted along it
Chain of human LAG-3 domain 1-2 Fc fusion, point mutation #2 Q41A (human) (P18627 23-266 Q41A): as the sequence (P18627 23-266 R113A) above, with Q19A, A91R counted along it
Chain of human LAG-3 domain 1-2 Fc fusion, point mutation #66 G126A (human) (P18627 23-266 G126A): as the sequence (P18627 23-266 R113A) above, with A91R, G104A counted along it
Chain of human LAG-3 domain 1-2 Fc fusion, point mutation #22 A75S (human) (P18627 23-266 A75S): as the sequence (P18627 23-266 R113A) above, with A53S, A91R counted along it
Chain of human LAG-3 domain 1-2 Fc fusion, point mutation #17 Q66A (human) (P18627 23-266 Q66A): as the sequence (P18627 23-266 R113A) above, with Q44A, A91R counted along it
Chain of human LAG-3 domain 1-2 Fc fusion, chimeric construct #9 (mutated region AA 66-71) (human) (P18627 other isoform, or with tags, fused parts or gaps mutant): as the sequence (P18627 23-266 R113A) above, with Q44R, G48D, P49Q, A91R counted along it
Chain of human LAG-3 domain 1-2 Fc fusion, chimeric construct #24 (mutated region AA 148-154) (human) (P18627 other isoform, or with tags, fused parts or gaps mutant): as the sequence (P18627 23-266 R113A) above, with A91R, R126H, A128F, H130R, R132P counted along it
Chain of human LAG-3 domain 1-2 Fc fusion, point mutation #31 P84A (human) (P18627 23-266 P84A): as the sequence (P18627 23-266 R113A) above, with P62A, A91R counted along it
Chain of human LAG-3 domain 1-2 Fc fusion, chimeric construct #20 (mutated region AA 123-131) (human) (P18627 23-266, stated change not applied): as the sequence (P18627 23-266 R113A) above, with A91R counted along it
Chain of human LAG-3 domain 1-2 Fc fusion, chimeric construct #19 (mutated region AA 118-127) (human) (P18627 other isoform, or with tags, fused parts or gaps mutant): as the sequence (P18627 23-266 R113A) above, with A91R, P96S, R97H, D101E, E102K, R105P counted along it
Chain of human LAG-3 domain 1-2 Fc fusion, point mutation #8 Q51A (human) (P18627 23-266 Q51A): as the sequence (P18627 23-266 R113A) above, with Q29A, A91R counted along it
Chain of human LAG-3 domain 1-2 Fc fusion, point mutation #80 R163A (human) (P18627 23-266 R163A): as the sequence (P18627 23-266 R113A) above, with A91R, R141A counted along it
Chain of human LAG-3 domain 1-2 Fc fusion, point mutation #76 D143A (human) (P18627 23-266 D143A): as the sequence (P18627 23-266 R113A) above, with A91R, D121A counted along it

Fab fragment of 25F7-Lag3.5 analogue
KD mutant/KD wild type [1]: 0.8 fold | KD mutant/KD wild type [2]: 6.2 fold | KD mutant/KD wild type [3]: 0.9 fold | KD mutant/KD wild type [4]: 0.9 fold | KD mutant/KD wild type [5]: 1 fold | KD mutant/KD wild type [6]: 0.8 fold | KD mutant/KD wild type [7]: 0.9 fold | KD mutant/KD wild type [8]: 0.9 fold | KD mutant/KD wild type [9]: 0.6 fold | KD mutant/KD wild type [10]: 1 fold | KD mutant/KD wild type [11]: 0.9 fold | KD mutant/KD wild type [12]: 1 fold | KD mutant/KD wild type [13]: 1.4 fold | KD mutant/KD wild type [14]: 0.8 fold | KD mutant/KD wild type [15]: 1.3 fold | KD mutant/KD wild type [16]: 1.3 fold | KD mutant/KD wild type [17]: 0.7 fold | KD mutant/KD wild type [18]: 0.9 fold | KD mutant/KD wild type [19]: 0.8 fold | KD mutant/KD wild type [20]: 0.7 fold | KD mutant/KD wild type [21]: 1.1 fold | KD mutant/KD wild type [22]: 1 fold | KD mutant/KD wild type [23]: 0.9 fold | KD mutant/KD wild type [24]: 0.8 fold | KD mutant/KD wild type [25]: 0.9 fold | KD mutant/KD wild type [26]: 0.9 fold | KD mutant/KD wild type [27]: 0.8 fold | KD mutant/KD wild type [28]: 1.3 fold | KD mutant/KD wild type [29]: 1.3 fold | KD mutant/KD wild type [30]: 1.3 fold | KD mutant/KD wild type [31]: 1 fold | KD mutant/KD wild type [32]: 0.9 fold | KD mutant/KD wild type [33]: 0.8 fold
